From paper PMC9672333

Target: Omicron BA.1 spike RBD (UniProt P0DTC2) (SARS-CoV-2) (UniProt P0DTC2)
Assay: microfluidic diffusional sizing (MDS)

Row | Substance | fold reduction of binding affinity relative to wild type RBD [fold]
1 | Casirivimab (antibody) | > 100
2 | Cilgavimab Biosimilar (antibody) | > 100
3 | Tixagevimab Biosimilar (antibody) | > 100
